Assay results taken from patent US20250188166A1.

Assays:
[1] = biological target: IL-18 polypeptide SEQ ID NO: 5 (E6K, V11I, C38A, K53A, T63A, C68A, C76A, C127A, M86C) (human) (UniProt Q14116); assay: cell-based or functional assay
[2] = biological target: IL-18 polypeptide SEQ ID NO: 43 (E06K, K53A, S55A, Y01G) (human) (UniProt Q14116); assay: cell-based or functional assay
[3] = biological target: IL-18 polypeptide SEQ ID NO: 53 (K53A, T63A) (human) (UniProt Q14116); assay: cell-based or functional assay
[4] = biological target: IL-18 polypeptide C161 (human) (UniProt Q14116); assay: cell-based or functional assay
[5] = biological target: IL-18 polypeptide C162 (human) (UniProt Q14116); assay: cell-based or functional assay
[6] = biological target: IL-18 polypeptide SEQ ID NO: 50 (E06K, K53A, T63A) (human) (UniProt Q14116); assay: cell-based or functional assay
[7] = biological target: IL-18 polypeptide C160 (human) (UniProt Q14116); assay: cell-based or functional assay
[8] = biological target: IL-18 polypeptide C150 (human) (UniProt Q14116); assay: cell-based or functional assay
[9] = biological target: IL-18 polypeptide SEQ ID NO: 42 (E06K, K53A, S55A, T63A) (human) (UniProt Q14116); assay: cell-based or functional assay
[10] = biological target: IL-18 polypeptide C167 (human) (UniProt Q14116); assay: cell-based or functional assay
[11] = biological target: IL-18 polypeptide C147 (human) (UniProt Q14116); assay: cell-based or functional assay
[12] = biological target: IL-18 polypeptide C155 (human) (UniProt Q14116); assay: cell-based or functional assay
[13] = biological target: IL-18 polypeptide SEQ ID NO: 60 (E6K, C38Q, K53A) (human) (UniProt Q14116); assay: cell-based or functional assay
[14] = biological target: IL-18 polypeptide SEQ ID NO: 35 (Y01G, F02A, E06K, M51G, K53A, D54A, S55A, T63A) (human) (UniProt Q14116); assay: cell-based or functional assay
[15] = biological target: IL-18 polypeptide SEQ ID NO: 62 (E6K, C38A, K53A, C127A) (human) (UniProt Q14116); assay: cell-based or functional assay
[16] = biological target: IL-18 polypeptide C148 (human) (UniProt Q14116); assay: cell-based or functional assay
[17] = biological target: IL-18 polypeptide C152 (human) (UniProt Q14116); assay: cell-based or functional assay
[18] = biological target: IL-18 polypeptide C168 (human) (UniProt Q14116); assay: cell-based or functional assay
[19] = biological target: IL-18 polypeptide C157 (human) (UniProt Q14116); assay: cell-based or functional assay
[20] = biological target: IL-18 polypeptide C165 (human) (UniProt Q14116); assay: cell-based or functional assay
[21] = biological target: IL-18 polypeptide SEQ ID NO: 41 (K53A, S55A) (human) (UniProt Q14116); assay: cell-based or functional assay
[22] = biological target: IL-18 polypeptide C144 (human) (UniProt Q14116); assay: cell-based or functional assay
[23] = biological target: IL-18 polypeptide C146 (SEQ ID NO: 68) (human) (UniProt Q14116); assay: cell-based or functional assay
[24] = biological target: IL-18 polypeptide SEQ ID NO: 37 (S55A) (human) (UniProt Q14116); assay: cell-based or functional assay
[25] = biological target: IL-18 polypeptide SEQ ID NO: 48 (C38S, C68S, C76S, C127S, K70C) (human) (UniProt Q14116); assay: cell-based or functional assay
[26] = biological target: IL-18 polypeptide SEQ ID NO: 47 (C38S, C68S, C76S, C127S) (human) (UniProt Q14116); assay: cell-based or functional assay
[27] = biological target: IL-18 polypeptide SEQ ID NO: 51 (T63A) (human) (UniProt Q14116); assay: cell-based or functional assay
[28] = biological target: IL-18 polypeptide C164 (human) (UniProt Q14116); assay: cell-based or functional assay
[29] = biological target: IL-18 polypeptide C163 (human) (UniProt Q14116); assay: cell-based or functional assay
[30] = biological target: IL-18 polypeptide SEQ ID NO: 9 (E6K, C38A, K53A, C68A, D98C) (human) (UniProt Q14116); assay: cell-based or functional assay
[31] = biological target: IL-18 polypeptide SEQ ID NO: 38 (E06K) (human) (UniProt Q14116); assay: cell-based or functional assay
[32] = biological target: IL-18 polypeptide C145 (human) (UniProt Q14116); assay: cell-based or functional assay
[33] = biological target: IL-18 polypeptide SEQ ID NO: 52 (E06K, T63A) (human) (UniProt Q14116); assay: cell-based or functional assay
[34] = biological target: IL-18 polypeptide SEQ ID NO: 55 (K53A, T63A, C38S, C68S, C76S, C127S, K70C) (human) (UniProt Q14116); assay: cell-based or functional assay
[35] = biological target: IL-18 polypeptide SEQ ID NO: 39 (E06K, K53A) (human) (UniProt Q14116); assay: cell-based or functional assay
[36] = biological target: IL-18 polypeptide C158 (human) (UniProt Q14116); assay: cell-based or functional assay
[37] = biological target: IL-18 polypeptide SEQ ID NO: 54 (E06K, K53A, C38S, C68S, C76S, C127S, K70C) (human) (UniProt Q14116); assay: cell-based or functional assay
[38] = biological target: IL-18 polypeptide SEQ ID NO: 36 (K53A) (human) (UniProt Q14116); assay: cell-based or functional assay
[39] = biological target: IL-18 polypeptide C154 (human) (UniProt Q14116); assay: cell-based or functional assay
[40] = biological target: IL-18 polypeptide C143 (human) (UniProt Q14116); assay: cell-based or functional assay
[41] = biological target: IL-18 polypeptide C159 (human) (UniProt Q14116); assay: cell-based or functional assay
[42] = biological target: IL-18 polypeptide SEQ ID NO: 46 (E06K, K53A, S55A, M51G) (human) (UniProt Q14116); assay: cell-based or functional assay
[43] = biological target: IL-18 polypeptide C166 (human) (UniProt Q14116); assay: cell-based or functional assay
[44] = biological target: IL-18 polypeptide C149 (human) (UniProt Q14116); assay: cell-based or functional assay
[45] = biological target: native IL-18 wild-type (SEQ ID NO: 1) (human) (UniProt Q14116); assay: cell-based or functional assay
[46] = biological target: IL-18 polypeptide SEQ ID NO: 34 (E06K, K53A, S55A) (human) (UniProt Q14116); assay: cell-based or functional assay
[47] = biological target: IL-18 polypeptide C151 (human) (UniProt Q14116); assay: cell-based or functional assay
[48] = biological target: IL-18 polypeptide C156 (human) (UniProt Q14116); assay: cell-based or functional assay
[49] = biological target: IL-18 polypeptide SEQ ID NO: 40 (E06K, S55A) (human) (UniProt Q14116); assay: cell-based or functional assay
[50] = biological target: IL-18 polypeptide C153 (human) (UniProt Q14116); assay: cell-based or functional assay
[51] = biological target: IL-18 polypeptide SEQ ID NO: 59 (E6K, C38A, K53A) (human) (UniProt Q14116); assay: cell-based or functional assay
[52] = biological target: IL-18 polypeptide SEQ ID NO: 4 (E6K, C38A, K53A, C68A, M86C) (human) (UniProt Q14116); assay: cell-based or functional assay
[53] = biological target: IL-18 polypeptide SEQ ID NO: 57 (E6K, C38S, K53A) (human) (UniProt Q14116); assay: cell-based or functional assay
[54] = biological target: IL-18 polypeptide SEQ ID NO: 6 (E6K, V11I, C38A, K53A, T63A, C68A, C76A, C127A, D98C) (human) (UniProt Q14116); assay: cell-based or functional assay
[55] = biological target: Composition C (Trastuzumab/Herceptin conjugated to IL-18 polypeptide SEQ ID NO: 30) (human)
[56] = biological target: Composition D (LZM-009 conjugated to IL-18 polypeptide SEQ ID NO: 31) (human) (UniProt Q14116)
[57] = biological target: native IL-18 wild-type (SEQ ID NO: 1) (human) (UniProt Q14116)
[58] = biological target: Composition A (LZM-009 conjugated to IL-18 polypeptide SEQ ID NO: 30) (human) (UniProt Q14116)
[59] = biological target: IL-18 polypeptide SEQ ID NO: 31 (C38A, C76A, C127A) (human) (UniProt Q14116)

Substance: Fc fused human IL-18 binding protein isoform a (from UniProt O95998 31-194) (Fc fusion)
- IC50 of IL-18BP on IFNγ secretion by NK92 cells [1]: 62.4 nM
- IC50 of IL-18BP on IFNγ secretion by NK92 cells [2]: 27.8 nM
- IC50 of IL-18BP on IFNγ secretion by NK92 cells [3]: 18.2 nM
- IC50 of IL-18BP on IFNγ secretion by NK92 cells [4]: 1.07 nM
- IC50 of IL-18BP on IFNγ secretion by NK92 cells [5]: 7.29 nM
- IC50 of IL-18BP on IFNγ secretion by NK92 cells [6]: > 1000 nM
- IC50 of IL-18BP on IFNγ secretion by NK92 cells [7]: 3.18 nM
- IC50 of IL-18BP on IFNγ secretion by NK92 cells [8]: 21.3 nM
- IC50 of IL-18BP on IFNγ secretion by NK92 cells [9]: 1060 nM
- IC50 of IL-18BP on IFNγ secretion by NK92 cells [10]: 0.809 nM
- IC50 of IL-18BP on IFNγ secretion by NK92 cells [11]: 47.6 nM
- IC50 of IL-18BP on IFNγ secretion by NK92 cells [12]: 3.23 nM
- IC50 of IL-18BP on IFNγ secretion by NK92 cells [13]: 780 nM
- IC50 of IL-18BP on IFNγ secretion by NK92 cells [14]: > 55 nM
- IC50 of IL-18BP on IFNγ secretion by NK92 cells [15]: 284 nM
- IC50 of IL-18BP on IFNγ secretion by NK92 cells [16]: 5.05 nM
- IC50 of IL-18BP on IFNγ secretion by NK92 cells [17]: 7.85 nM
- IC50 of IL-18BP on IFNγ secretion by NK92 cells [18]: 0.176 nM
- IC50 of IL-18BP on IFNγ secretion by NK92 cells [19]: 6.08 nM
- IC50 of IL-18BP on IFNγ secretion by NK92 cells [20]: 0.885 nM
- IC50 of IL-18BP on IFNγ secretion by NK92 cells [21]: 37.3 nM
- IC50 of IL-18BP on IFNγ secretion by NK92 cells [22]: 7.52 nM
- IC50 of IL-18BP on IFNγ secretion by NK92 cells [23]: 733 nM
- IC50 of IL-18BP on IFNγ secretion by NK92 cells [24]: 4.46 nM
- IC50 of IL-18BP on IFNγ secretion by NK92 cells [25]: 0.114 nM
- IC50 of IL-18BP on IFNγ secretion by NK92 cells [26]: 0.444 nM
- IC50 of IL-18BP on IFNγ secretion by NK92 cells [27]: 0.239 nM
- IC50 of IL-18BP on IFNγ secretion by NK92 cells [28]: 0.456 nM
- IC50 of IL-18BP on IFNγ secretion by NK92 cells [29]: 0.823 nM
- IC50 of IL-18BP on IFNγ secretion by NK92 cells [30]: 961 nM
- IC50 of IL-18BP on IFNγ secretion by NK92 cells [31]: 7.79 nM
- IC50 of IL-18BP on IFNγ secretion by NK92 cells [32]: 10.2 nM
- IC50 of IL-18BP on IFNγ secretion by NK92 cells [33]: 47.1 nM
- IC50 of IL-18BP on IFNγ secretion by NK92 cells [34]: > 1000 nM
- IC50 of IL-18BP on IFNγ secretion by NK92 cells [35]: > 703 nM
- IC50 of IL-18BP on IFNγ secretion by NK92 cells [36]: 3.98 nM
- IC50 of IL-18BP on IFNγ secretion by NK92 cells [37]: 23.5 nM
- IC50 of IL-18BP on IFNγ secretion by NK92 cells [38]: 27.3 nM
- IC50 of IL-18BP on IFNγ secretion by NK92 cells [39]: 3.71 nM
- IC50 of IL-18BP on IFNγ secretion by NK92 cells [40]: 1.62 nM
- IC50 of IL-18BP on IFNγ secretion by NK92 cells [41]: 1.81 nM
- IC50 of IL-18BP on IFNγ secretion by NK92 cells [42]: 0.189 nM
- IC50 of IL-18BP on IFNγ secretion by NK92 cells [43]: 0.44 nM
- IC50 of IL-18BP on IFNγ secretion by NK92 cells [44]: 1.17 nM
- IC50 of IL-18BP on IFNγ secretion by NK92 cells [45]: 1.47 nM
- IC50 of IL-18BP on IFNγ secretion by NK92 cells [46]: 229 nM
- IC50 of IL-18BP on IFNγ secretion by NK92 cells [47]: 3.62 nM
- IC50 of IL-18BP on IFNγ secretion by NK92 cells [48]: 0.681 nM
- IC50 of IL-18BP on IFNγ secretion by NK92 cells [49]: 15 nM
- IC50 of IL-18BP on IFNγ secretion by NK92 cells [50]: 2.22 nM
- IC50 of IL-18BP on IFNγ secretion by NK92 cells [51]: 654 nM
- IC50 of IL-18BP on IFNγ secretion by NK92 cells [52]: 396 nM
- IC50 of IL-18BP on IFNγ secretion by NK92 cells [53]: 146 nM
- IC50 of IL-18BP on IFNγ secretion by NK92 cells [54]: 5.85 nM
- IC50 (read off the curve) [55]: 10 nM
- IC50 (read off the curve) [56]: 0.1 nM
- IC50 (read off the curve) [57]: 1 nM
- IC50 (read off the curve) [58]: 8 nM
- IC50 (read off the curve) [59]: 0.3 nM
